Test results taken from patent publication US20030224390A1, “Method of identifying conformation-sensitive binding peptides and uses thereof” (Karo Bio AB, priority 2000, published 2003).
Residue numbers refer to the chain shown, from its start.

Legend:
estrogen receptor (ER) α = target: T1, estrogen receptor (ER) α (Homo sapiens, UniProt P03372); assay: Yeast two-hybrid screening of LXXLL peptide library, ligand induced β-galactosidase activity (FIG. 1, Table 501); format: cell-based; conditions: with and without estradiol
T1 construct: expressed in transfected cells; host or cells: Saccharomyces cerevisiae PJ69-α
T1 sequence (P03372 1-595): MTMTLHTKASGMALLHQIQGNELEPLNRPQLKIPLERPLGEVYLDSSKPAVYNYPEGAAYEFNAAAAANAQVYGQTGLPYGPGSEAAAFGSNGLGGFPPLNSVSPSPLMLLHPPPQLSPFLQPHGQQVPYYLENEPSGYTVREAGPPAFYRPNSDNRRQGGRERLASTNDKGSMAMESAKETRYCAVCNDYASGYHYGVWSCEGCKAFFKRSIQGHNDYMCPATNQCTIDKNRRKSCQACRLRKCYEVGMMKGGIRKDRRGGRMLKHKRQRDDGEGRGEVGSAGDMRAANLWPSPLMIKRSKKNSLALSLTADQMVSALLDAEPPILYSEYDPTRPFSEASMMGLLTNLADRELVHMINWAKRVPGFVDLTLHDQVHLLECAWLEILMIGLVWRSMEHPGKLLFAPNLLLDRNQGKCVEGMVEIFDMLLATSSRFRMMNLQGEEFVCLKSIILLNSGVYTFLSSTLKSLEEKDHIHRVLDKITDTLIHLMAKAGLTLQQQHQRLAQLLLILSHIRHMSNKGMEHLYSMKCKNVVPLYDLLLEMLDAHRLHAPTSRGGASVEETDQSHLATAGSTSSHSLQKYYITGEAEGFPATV
Source text: A directed peptide library (X5LXXLLX5, SEQ ID NO:264) containing the LXXLL motif (previously identified as common in peptides binding estrogen receptor) as a carboxy-terminal fusion to the Gal4 DNA binding domain was constructed with an overall complexity of […] independent peptides. The LXXLL motif library peptides were encoded by the degenerate DNA sequence (NNK)5TTA(NNK)2(TTA)2(NNK)5 (SEQ ID NO:265); TTA is the preferred Leu codon in yeast. NNK encodes a stop codon so a few of the peptides generated will be shorter than 15 a.a. The shortest interacting peptides will likely be 10-mers. This library was transformed into the Saccharomyces cerevisiae PJ69-α yeast strain expressing estrogen receptor (ER) α as a carboxy-terminal fusion to the Gal4 activation domain. […] Those colonies able to grow by inducing the integrated GAL4 driven HIS3 reporter were transferred into 0.25 ml of rich media in a 0.5 ml block.
Cells were pelleted by centrifugation, the media removed and the cells lysed with buffer containing 2.5% CHAPS (3-(3-Cholamidopropyl) dimethyl ammonio-1-propanesulfonate) detergent. A preliminary OD600 was determined to normalize β-galactosidase activity of each well with cell density. […] Yeast clones that generated a value equal to or greater than 0.5 were verified using the same method. Verified clones were then subjected to a final test of ligand induced β-galactosidase activity. […] Ten clones displaying the greatest ligand induced β-galactosidase activity were studied further.
Plasmids containing the peptides were isolated from the yeast cells and the amino acid sequences (Table 501) deduced by DNA sequencing of the library inserts. In Table 501, the underlined sequence is encoded by vector DNA, and the “*” represents the endogenous stop codon of the vector, and is downstream of the cloning site. Several peptides contain the vector-encoded LDLQPS (SEQ ID NO:266) sequence. B5H10 is believed to be the result of a double insert, with the second part being encoded by the complementary sequence. Peptides B1A1 and B1G8 were shorter than the other isolates because the clones encoding them carry a premature stop codon, which is inherent in the NNK library. Because of a frame shift, neither peptide B6A1 nor B3E2 contained the sequence encoded by vector DNA.

ERβ = ERβ (Homo sapiens, UniProt Q92731); assay: Phage ELISA fingerprint: peptide binding to immobilized ER β with modulator present (Table 14B)
Chain of ERβ (Q92731 whole entry, species assumed, the tested form may be a part): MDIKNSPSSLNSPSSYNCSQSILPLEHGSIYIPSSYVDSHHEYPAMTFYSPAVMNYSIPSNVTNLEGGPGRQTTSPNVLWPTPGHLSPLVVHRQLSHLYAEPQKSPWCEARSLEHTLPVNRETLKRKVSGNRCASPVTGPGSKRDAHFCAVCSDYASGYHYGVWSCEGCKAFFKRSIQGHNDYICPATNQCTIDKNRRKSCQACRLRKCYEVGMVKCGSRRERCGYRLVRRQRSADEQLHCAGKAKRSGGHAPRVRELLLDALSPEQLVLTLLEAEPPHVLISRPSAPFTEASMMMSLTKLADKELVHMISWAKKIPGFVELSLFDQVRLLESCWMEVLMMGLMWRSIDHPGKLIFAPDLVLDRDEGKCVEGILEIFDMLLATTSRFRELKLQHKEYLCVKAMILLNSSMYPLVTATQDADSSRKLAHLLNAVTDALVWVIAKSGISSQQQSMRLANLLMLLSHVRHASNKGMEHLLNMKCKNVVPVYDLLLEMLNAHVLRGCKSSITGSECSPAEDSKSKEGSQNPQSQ

[1] = target: T2, Gal4 transcriptional activation domain (AD) fused in frame with AR (pGAD-C2) (yeast), P10275; assay: cell-based or functional assay
T2 chain: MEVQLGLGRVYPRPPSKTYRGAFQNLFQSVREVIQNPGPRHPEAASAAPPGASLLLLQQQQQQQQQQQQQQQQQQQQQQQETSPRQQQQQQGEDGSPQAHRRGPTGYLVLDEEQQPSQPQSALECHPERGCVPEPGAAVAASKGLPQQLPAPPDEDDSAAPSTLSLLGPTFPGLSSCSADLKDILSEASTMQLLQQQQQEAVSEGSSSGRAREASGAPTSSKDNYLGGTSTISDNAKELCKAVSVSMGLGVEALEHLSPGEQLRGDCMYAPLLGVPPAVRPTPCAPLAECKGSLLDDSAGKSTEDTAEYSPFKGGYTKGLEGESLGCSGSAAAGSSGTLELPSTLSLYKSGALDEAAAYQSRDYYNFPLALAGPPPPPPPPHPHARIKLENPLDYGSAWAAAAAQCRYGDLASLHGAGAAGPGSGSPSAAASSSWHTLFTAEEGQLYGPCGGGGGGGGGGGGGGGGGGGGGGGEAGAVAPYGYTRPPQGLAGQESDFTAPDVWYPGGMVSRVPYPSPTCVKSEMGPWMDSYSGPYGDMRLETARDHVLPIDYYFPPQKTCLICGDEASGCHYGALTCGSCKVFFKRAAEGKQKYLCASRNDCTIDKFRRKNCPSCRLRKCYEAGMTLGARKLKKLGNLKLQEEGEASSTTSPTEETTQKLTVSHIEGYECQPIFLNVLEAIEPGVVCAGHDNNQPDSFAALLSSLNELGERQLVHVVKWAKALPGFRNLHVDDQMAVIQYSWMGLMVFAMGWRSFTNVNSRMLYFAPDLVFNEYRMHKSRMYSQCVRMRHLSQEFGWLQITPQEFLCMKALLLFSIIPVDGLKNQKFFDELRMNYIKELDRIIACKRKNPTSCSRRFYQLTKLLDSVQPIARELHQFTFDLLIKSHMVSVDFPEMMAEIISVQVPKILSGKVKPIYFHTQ

[2] = target: T3, pVP16-AR (VP16 activation domain fused to androgen receptor), P10275; assay: cell-based or functional assay
T3 chain: T2 chain

[3] = target: T4, estrogen receptor (ER) α as a carboxy-terminal fusion to the Gal4 activation domain (yeast, UniProt P03372 1-595, limits assumed); assay: cell-based or functional assay
T4 sequence (looked up): T1 sequence (P03372 1-595)

For EFCPVGLLVHLLMQ* [B1A1], the “Fold Induction (ligand induced β-galactosidase activity)” value (estrogen receptor (ER) α) was 11.

For EFFRATHLLRLLRTDSALDLQPS* [B6F3], the “Fold Induction (ligand induced β-galactosidase activity)” value (estrogen receptor (ER) α) was 3.

In the case of EFFRLRRLDRLLQDSFLLDLQPS* [B2G1], the “Fold Induction (ligand induced β-galactosidase activity)” value (estrogen receptor (ER) α) is reported as 12.

EFGCSAILRYLLRSPRDLDLQPS* [B5A2] was tested, and the “Fold Induction (ligand induced β-galactosidase activity)” value (estrogen receptor (ER) α) was 2.5.

With EFGGSVLLRELLCCYDALEPTTTR [B3E2] the “Fold Induction (ligand induced β-galactosidase activity)” value (estrogen receptor (ER) α) was 3.

EFSGVPILHMLLMLPSSLDLQOPS* [B4F6] was tested, and the “Fold Induction (ligand induced β-galactosidase activity)” value (estrogen receptor (ER) α) was 5.

“EFSPPSSLLALLLGGKSLEPLPIRYKNVKRQFTSNSRGSVDLQPS [B5H10]” was tested, and the “Fold Induction (ligand induced β-galactosidase activity)” value (estrogen receptor (ER) α) was 4.5.

EFTGSRLLLKLLRFPDSSTCSQA [B6A1] was tested, and the “Fold Induction (ligand induced β-galactosidase activity)” value (estrogen receptor (ER) α) was 3.5.

EFTSVSRLVTLLLQ* [B1G8] was tested, and the “Fold Induction (ligand induced β-galactosidase activity)” value (estrogen receptor (ER) α) was 6.

For SSEACVGRWMLCEQLGVSR [12Bβ], the “Class Specific Fingerprint on ERβ: peptide binding, Nafoxidine present” value (ERβ; nafoxidine (10 μM)) was 5.

SSNHQSSRLIELLSR [#4 ER./E2] was tested, and the “Class Specific Fingerprint on ERβ: peptide binding, 4-OH Tamoxifen present” value (ERβ; 4-OH tamoxifen (1 μM)) was 0, the “Class Specific Fingerprint on ERβ: peptide binding, ICI 182,780 present” value (ERβ; ICI 182,780 (1 μM)) was 0 and the “Class Specific Fingerprint on ERβ: peptide binding, Clomiphene present” value (ERβ; clomiphene (10 μM)) was 0. The “Class Specific Fingerprint on ERβ: peptide binding, Raloxifene present” value (ERβ; raloxifene (1 μM)) was 0.

B1: B8H3, P04386 1-147 (peptide)
chain: MKLLSSIEQACDICRLKKLKCSKEKPKCAKCLKNNWECRYSPKTKRSPLTRAHLTEVESRLERLEQLFLLIFPREDLDMILKMDSLQDIKALLTGLFVQDNVNKDAVTDRLASVETDMPLTLRQHRISATSSSEESSNKGQRQLTVSEFHSRLRVEVVSWGIGSTCSQANSGRISYDL
modifications: not checked
Molecule B1 has a Fold induction, yeast two-hybrid [1] of 22 fold, a β-galactosidase activity, yeast two-hybrid; CPA [1] of 0.393 and a β-galactosidase activity, yeast two-hybrid; DHT [1] of 3.81. The β-galactosidase activity, yeast two-hybrid; No Lig [1] was 0.174, the β-galactosidase activity, yeast two-hybrid; RU [1] was 0 and the normalized luciferase activity, mammalian two-hybrid; CYP. [2] was 10.5. For the same molecule, the normalized luciferase activity, mammalian two-hybrid; DHT [2] was 11.6, the normalized luciferase activity, mammalian two-hybrid; MPA [2] was 11.3 and the normalized luciferase activity, mammalian two-hybrid; RU486 [2] was 3.88. The normalized luciferase activity, mammalian two-hybrid; no compound [2] was 0.132.

B2: B3E2 (peptide)
chain: MKLLSSIEQACDICRLKKLKCSKEKPKCAKCLKNNWECRYSPKTKRSPLTRAHLTEVESRLERLEQLFLLIFPREDLDMILKMDSLQDIKALLTGLFVQDNVNKDAVTDRLASVETDMPLTLRQHRISATSSSEESSNKGQRQLTVSEFGGSVLLRELLCCYDALEPTTTR
For B2, the “fold induction of β-galactosidase by estradiol, yeast two-hybrid” value (“fold induction of β-galactosidase” below) [3] was 3 fold.

B3: B6F3 (peptide)
chain: MKLLSSIEQACDICRLKKLKCSKEKPKCAKCLKNNWECRYSPKTKRSPLTRAHLTEVESRLERLEQLFLLIFPREDLDMILKMDSLQDIKALLTGLFVQDNVNKDAVTDRLASVETDMPLTLRQHRISATSSSEESSNKGQRQLTVSEFFRATHLLRLLRTDSALDLQPS
With B3 the “fold induction of β-galactosidase” value [3] was 3 fold.

B4: B5A2 (peptide)
chain: MKLLSSIEQACDICRLKKLKCSKEKPKCAKCLKNNWECRYSPKTKRSPLTRAHLTEVESRLERLEQLFLLIFPREDLDMILKMDSLQDIKALLTGLFVQDNVNKDAVTDRLASVETDMPLTLRQHRISATSSSEESSNKGQRQLTVSEFGCSAILRYLLRSPRDLDLQPS
In the case of B4, the “fold induction of β-galactosidase” value [3] is reported as 2.5 fold.

B5: B6C4 (peptide)
chain: B4 chain with G150D, C151R, A153S, R156V, Y157S, R160S, S161M, P162V, R163E, D164T
With B5 the “fold induction of β-galactosidase” value [3] was ≥ 2 fold.

B6: B4F6 (peptide)
chain: B4 chain with G150S, C151G, S152V, A153P, R156H, Y157M, R160M, S161L, R163S, D164S
For B6, the “fold induction of β-galactosidase” value [3] was 5 fold.

B7: B2G1 (peptide)
chain: B3 chain with A152L, T153R, H154R, L156D, R160Q, T161D, D162S, S163F, A164L
B7 was tested, and the “fold induction of β-galactosidase” value [3] was 12 fold.

B8: B5H10 (peptide)
chain: MKLLSSIEQACDICRLKKLKCSKEKPKCAKCLKNNWECRYSPKTKRSPLTRAHLTEVESRLERLEQLFLLIFPREDLDMILKMDSLQDIKALLTGLFVQDNVNKDAVTDRLASVETDMPLTLRQHRISATSSSEESSNKGQRQLTVSEFSPPSSLLALLLGGKSLEPLPIRYKNVKRQFTSNSRGSVDLQPS
For B8, the “fold induction of β-galactosidase” value [3] was 4.5 fold.

B9: B1A1 (peptide)
chain: MKLLSSIEQACDICRLKKLKCSKEKPKCAKCLKNNWECRYSPKTKRSPLTRAHLTEVESRLERLEQLFLLIFPREDLDMILKMDSLQDIKALLTGLFVQDNVNKDAVTDRLASVETDMPLTLRQHRISATSSSEESSNKGQRQLTVSEFCPVGLLVHLLMQ
With B9 the “fold induction of β-galactosidase” value [3] was 11 fold.

B10: B1G8 (peptide)
chain: B9 chain with C150T, P151S, G153S, L154R, H157T, M160L
In the case of B10, the “fold induction of β-galactosidase” value [3] is reported as 6 fold.

B11: B8E9, P04386 1-147 (peptide)
chain: MKLLSSIEQACDICRLKKLKCSKEKPKCAKCLKNNWECRYSPKTKRSPLTRAHLTEVESRLERLEQLFLLIFPREDLDMILKMDSLQDIKALLTGLFVQDNVNKDAVTDRLASVETDMPLTLRQHRISATSSSEESSNKGQRQLTVSEFQQCMCAEVKSWLGGSLDLQPS
modifications: not checked
For B11, the Fold induction, yeast two-hybrid [1] was 4 fold, the β-galactosidase activity, yeast two-hybrid; CPA [1] was 0.563 and the β-galactosidase activity, yeast two-hybrid; DHT [1] was 1.75. For the same molecule, the β-galactosidase activity, yeast two-hybrid; No Lig [1] was 0.499, the β-galactosidase activity, yeast two-hybrid; RU [1] was 0.8 and the normalized luciferase activity, mammalian two-hybrid; CYP. [2] was 16. The normalized luciferase activity, mammalian two-hybrid; DHT [2] was 19.6, the normalized luciferase activity, mammalian two-hybrid; MPA [2] was 18.5 and the normalized luciferase activity, mammalian two-hybrid; RU486 [2] was 10.2. For the same molecule, the normalized luciferase activity, mammalian two-hybrid; no compound [2] was 0.209.

B12: B6A1 (peptide)
chain: MKLLSSIEQACDICRLKKLKCSKEKPKCAKCLKNNWECRYSPKTKRSPLTRAHLTEVESRLERLEQLFLLIFPREDLDMILKMDSLQDIKALLTGLFVQDNVNKDAVTDRLASVETDMPLTLRQHRISATSSSEESSNKGQRQLTVSEFTGSRLLLKLLRFPDSSTCSQA
B12 was tested, and the “fold induction of β-galactosidase” value [3] was 3.5 fold.
